What was measured:
[1] = biological target: T1, recombinant E1/E2 heterodimer protein (genotype 1a) (hepatitis C virus genotype 1a, UniProt P26664 192-383; P26664 384-746, limits assumed); test: ELISA, E1/E2 heterodimer coated; crude periplasmic Fab
T1 construct: also called E1/E2 in complex; recombinant E1/E2 antigen

[2] = biological target: T2, recombinant soluble HCV E1 protein (hepatitis C virus); test: ELISA, recombinant E1 captured on GNA lectin; crude periplasmic Fab
T2 construct: It is not the cell-surface E1-myc construct (aa 174-359 of H77c) that was used for phage selection; also called recombinant E1; soluble E1 protein

T1 sequence (P26664 192-383 limits assumed, chain 1 of 2): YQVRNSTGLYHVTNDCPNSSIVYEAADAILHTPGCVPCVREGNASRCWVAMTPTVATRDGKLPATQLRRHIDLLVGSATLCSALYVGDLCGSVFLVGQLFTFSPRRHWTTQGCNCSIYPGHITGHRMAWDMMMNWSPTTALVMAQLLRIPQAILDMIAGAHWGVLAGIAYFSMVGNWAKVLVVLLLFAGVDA
T1 sequence (P26664 384-746 limits assumed, chain 2 of 2): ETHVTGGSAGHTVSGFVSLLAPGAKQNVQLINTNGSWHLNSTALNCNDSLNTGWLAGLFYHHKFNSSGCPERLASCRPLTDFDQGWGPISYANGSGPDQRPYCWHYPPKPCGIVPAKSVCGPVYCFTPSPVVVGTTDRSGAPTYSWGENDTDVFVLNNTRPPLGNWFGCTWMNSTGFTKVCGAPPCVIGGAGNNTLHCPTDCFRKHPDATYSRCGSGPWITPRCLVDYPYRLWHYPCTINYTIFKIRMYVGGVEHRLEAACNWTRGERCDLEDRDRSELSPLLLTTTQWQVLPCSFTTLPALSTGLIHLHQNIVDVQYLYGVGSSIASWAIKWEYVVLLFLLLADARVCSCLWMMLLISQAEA

| Binder | OD405 nm [1] [OD405 nm] | OD405 nm [2] [OD405 nm] |
| --- | --- | --- |
| Fab clone 2b-5 (Fab, V domains shown, Human Fab (gamma1 Fd + kappa), crude periplasmic preparation, approx. >1.0 ug Fab/ml) VH: EVQLLESGGGVVQPGRSLRLSCAASGFTLSTYAMHWVRQAPGRGLEWVAVISYDGDHKFYADSMKGRFAISRDTSTNTLYLEVNSLKIEDTAVYYCARDRDRRGGYVFSTTGGLDSWGQGTLVTVSS VL: AELTQSPLSLAVTPGEPASISCRTSQSLLHSNGYTYLDWYLQKPGQSPQLLIYLASNRASGVPDRFSGSGSGTDFTLEISRVEAEDVGVYYCMQPLQTPVTFGQGTKVEVK | 1.4 | 2.21 |
| Fab clone 1:4 (Fab, V domains shown, Human Fab (gamma1 Fd + kappa), crude periplasmic preparation, approx. 0.01 ug Fab/ml) VH: EVQLLESGPGLVKPSETLSLTCTVSNGSMSNYCWSWIRQSPGKGLEWIGYIYYSGSTSYNPSLRSRVALLVDTSKNQFSLKLTSVTTADTAVYYCARDLSARGGTRNRDALDVWGQGTQVTVSA VL: not shown | 0.67 | 0.78 |
| Fab clone 2b-10 (Fab, V domains shown, Human Fab (gamma1 Fd + kappa), crude periplasmic preparation, approx. >1.0 ug Fab/ml) VH: EVQLLESGGGVVQPGRSLKLSCTASTFTFTNYAMHWVRQAPGKGLEWVALISNDGSKTYYTDSVRGRFTISRDNSKNTLFLQMNSLRTEDTAVYHCARVKLQGSFNVYYYYGLDVWGQGTTVTVSS VL: AELTQSPLSLPVTPGEPASISCRSSQSLLHSDGYNYFDWYLQKPGQSPQLLIYLGSNRASGVPDRFSGSGSDTDFTLKISRVEAEDVGVYYCMQTLQTLTFGGGTKLEIK | 0.11 | 0.48 |
| Fab clone 2b-4 (Fab, V domains shown, Human Fab (gamma1 Fd + kappa), crude periplasmic preparation, approx. 0.68 ug Fab/ml) VH: EVQLLESGGEVKKPGSSVKVSCKASGGPFSSYAIHWVRQAPGQGLEWMGAIIPFLGRAKYAQKFEGRVTITADGSMSTAYMEVSSLRSDDTAMYYCARDRGELLLRMDVWGQGTAVTVSS VL: AELTQSPAFMSATPGDKVNISCKASQDIDDDMNWYQQKPGEAAIFIIQEATTLVPGIPPRFSGSGYGTDFTLTINNIESEDAAYYFCLQHDNFPLTFGQGTKVEIK | 0.09 | 0.11 |
| Fab clone 2b-7 (Fab, V domains shown, Human Fab (gamma1 Fd + kappa), crude periplasmic preparation, approx. 0.54 ug Fab/ml) VH: VQLLEQSGAEVKKPGESLKISCRASGYSFSLFWVAWVRQMPGQGLEWMAIIYPGDSDTTYSPSFEGQVNVSVDKPISTAYLQWSSLKASDTAMYYCARRRSSDRRDAFDIWGPGTMVTVSS VL: AELTQSPAFMSATPGDKVNISCKASQDIDDDMNWYQQKPGEAAIFIIQEATTLVPGIPPRFSGSGYGTDFTLTINNIESEDAAYYFCLQHDNFPLTFGQGTKVEIK | 0.32 | 0.47 |

From US20040208887A1 (MOLECULES OF MAN, published 2004)
